Results taken from patent US20200031947A1 (RINAT NEUROSCIENCE, published 2020).
Where a chain is given by its changes, count along the chain named.

B1: anti-mGITR r18H12 mIgG2a (antibody, V domains shown)
VH: EVQLVESDGVLVQPGKSLTLSCAASGFTFSDYYMAWVRQAPTKGLEWVATISYDDITTFYRDSVKGRFTISRDTAKSTLYLQMDSLRSEDTATYYCTRGLQWPYVMDAWGQGALVTVSS
VL: DIVMTQSPSSLAVSAGETVTINCKSSQSLLYSGNQKSYLAWYQQKPGQSPKLLIYWASPRQSGVPDRFIGSGSGTDFTLTISSVQAEDMATYYCQQYYDAPPTFGGGTKLEIK
B2: h10H2 N14 (antibody, IgG1, V domains shown)
VH: QVQLVQSGAEVKKPGSSVKVSCKASGGTFSRYWIEWVRQAPGQGLEWMGEILPGSGVTFENEKFKGRVTITADESTSTAYMELSSLRSEDTAVYYCARKGRYYAMDYWGQGTSVTVSS
VL: EIVLTQSPGTLSLSPGERATLSCRASQSIGTSIHWYQQKPGQAPRLLIYYASESVSGIPDRFSGSGSGTDFTLTISRLEPEDFAVYYCQQTYSWPATFGQGTKVEIK
notes: also called R14; h10H2 R14
B3: h10H2 HU (antibody, V domains shown)
VH: B2 VH with F59N, E60Y, R101T
VL: B2 VL
notes: Whole IgG captured on an anti-human Fc chip
B4: h10H2 AM (antibody, V domains shown)
VH: B2 VH with S113L
VL: B2 VL
notes: as for B3
B5: anti-mGITR r21B6 mIgG2a (antibody, V domains shown)
VH: EAQLVESGGGLVQPGRSLKLSCEASGFTFTKYGMAWVRQAPTKGLEWVASIINSGGNTYYRDSVKGRFTISRDNAKSTLYLQMDSLRSEDTATYYCATDYYDGSYHSDVVDAWGQGVLVTVSS
VL: EIVLTQSPTTMAASPGEKVTITCRASSSLNYMHWFQQKSGTSPKPWIYDTSELASGVPDRFSGSGSGTSYSLTISSMEAEDAATYYCLQKNGYPLTFGSGTKLEIK
notes: also called m21B6 IgG2a
B6: h3G7 R5 (antibody, V domains shown)
VH: QVQLVQSGAEVKKPGASVKVSCKASGYTFTGATMNWVRQAPGQGLEWMGLINPYTGGIRYNQKFKGRVTMTRDTSTSTVYMELSSLRSEDTAVYYCARIGGYYDSMDYWGQGTLVTVSS
VL: DIQMTQSPSSLSASVGDRVTITCRASESVEPRGINFLNWYQQKPGKAPKLLIYAASQASKGVPSRFSGSGSGTDFTLTISSLQPEDFATYYCQQALELPWTFGGGTKVEIK
notes: Only variable domains are tied to this name
B7: h3G7 AM (antibody, V domains shown)
VH: B6 VH with T55N
VL: B6 VL with E30D, Q57N, A58Q, S59A
notes: as for B3
B8: h3G7 LF (antibody, V domains shown)
VH: B6 VH with S105T
VL: B6 VL
notes: as for B3
B9: h3G7 N9 (antibody, IgG1, V domains shown)
VH: B6 VH with A32Y, M34V, N35S
VL: B6 VL with E30Q, Q57N, A58P

What was measured:
[1] = target: T1, mouse GITR (mGITR), soluble analyte (mouse, UniProt O35714 20-153, limits assumed); test: SPR (Biacore T200), 37 C; purified antibody captured on anti-mouse Ig chip, mGITR as analyte (300 nM top, 3-fold series); 1:1 Langmuir fit
T1 construct: Soluble analyte in SPR; construct not described
T1 sequence (looked up): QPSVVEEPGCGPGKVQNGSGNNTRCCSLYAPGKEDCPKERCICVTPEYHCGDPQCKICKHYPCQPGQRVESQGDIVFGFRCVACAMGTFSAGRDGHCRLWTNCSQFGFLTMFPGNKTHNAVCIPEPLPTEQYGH
Procedure: (§1) The sensor chip preparation was performed at 25° C. with a running buffer of 10 mM HEPES, 150 mM NaCl, 0.05% (v/v) Tween-20, pH 7.4. An anti-mouse Fc sensor chip was made by activating all flow cells of a Biacore CM4 sensor chip with a 1:1 (v/v) mixture of 400 mM EDC and 100 mM NHS for 7 minutes, at a flow rate of 10 μL/min. An anti-mouse immunoglobulin reagent (Rabbit anti-mouse immunoglobulin antibodies from Biacore Mouse Antibody Capture Kit, GE Lifesciences Catalog # BR-1008-38) was diluted to 60 pg/mL in 10 mM Sodium Acetate pH 5.0 and injected on all flow cells for 7 minutes at 20 μL/min. All flow cells were blocked with 100 mM ethylenediamine in 150 mM Borate buffer pH 8.5 for 7 minutes at 10 μL/min.
The experiments were performed at 37° C. using a running buffer of 10 mM HEPES, 150 mM NaCl, 0.05% (v/v) Tween-20, pH 7.4, 1 mg/mL BSA.
Purified antibodies were captured at […] onto downstream flow cells (flow cells 2, 3 and 4) at a flow rate of 10 μL/min for 2 minutes. Different antibodies were captured on each flow cell. Flow cell 1 was used as a reference surface. Following capture of antibodies, analyte (buffer, or mGITR) was injected at 30 μL/min on all flow cells for two minutes. After the analyte injection, dissociation was monitored for 10 minutes followed by regeneration of all flow cells with one 3-minute injection of 10 mM Glycine pH 1.7. A 5-membered dilution series of mGITR was analyzed using this method, where the top concentration was 300 nM and the dilution factor was 3-fold. The 33 nM dilution was run in duplicate. Buffer cycles were collected for each captured antibody for double-referencing purposes (double-referencing as described in Myszka, J. Mol. Recognit. 12:279-284 (1999). The double-referenced sensorgrams were fit globally to a simple 1:1 Langmuir with mass transport binding model.

human GITR on cells [2] = target: T2, human GITR on cells (human, UniProt Q9Y5U5 26-162); test: cell-based or functional assay
T2 sequence: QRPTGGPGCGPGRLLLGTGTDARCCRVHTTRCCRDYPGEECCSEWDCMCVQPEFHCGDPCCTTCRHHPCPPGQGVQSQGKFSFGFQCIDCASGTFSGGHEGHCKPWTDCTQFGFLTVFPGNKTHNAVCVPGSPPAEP

human GITR on cells [3] = target: T2, human GITR on cells; test: flow cytometry on in vitro expanded human Tregs; unconjugated antibody detected with A647 goat anti-human Fc gamma F(ab')2; MFI on antibody positive cells
Procedure: Cultured Tregs would be tracked throughout expansion to check purity. Cells were re-suspended in FACS buffer, PBS with 2% FBS for analysis using fluorophore conjugated CD markers. FACS antibodies against GITR and other CD lymphocyte markers were prepared in FACS buffer at the appropriate concentration and incubated for 30 minutes at RT. Treg purity staining utilizes intracellular targets and were processed with Foxp3 fix/perm kit (Affymetrix/eBiosciense, San Diego, Calif.). Stained cells were resuspended in fresh FACS buffer and analyzed on a FACS analyzer LSRII or Fortessa (BD Biosciences, San Jose, Calif.). To generate kinetic and binding data unconjugated antibody was titrated from 10-0.001 ug/mL (1:10 in serial dilutions, triplicate wells per concentration) and incubated at 4c for 60 minutes with 1*10e5 expanded day 12 Tregs per well. Unbound antibody was washed from cells and an A647 labeled Fc gamma (Fcγ) Fragment Specific goat-anti-human affiniPure F(ab′)₂ IgG was used to detect bound antibody (Jackson ImmunoResearch Laboratories Inc, West Grove, Pa.). Analysis of stained cells completed with FlowJo (Treestar). Geometric mean of APC was used to calculate EC50 by log transforming the molar concentration and generating a non-linear fit curve in GraphPad Prism.

[4] = target: T3, human GITR (hGITR), soluble analyte (human, UniProt Q9Y5U5 26-162); test: SPR (Biacore T200), 37 C; antibody captured on anti-human Fc chip, GITR as analyte; 1:1 Langmuir fit
T3 sequence: T2 sequence
Procedure: as §1, with “anti-human” for “anti-mouse”, “anti-human Fc” for “anti-mouse immunoglobulin”, “(Goat Anti-Human IgG Fc, SouthernBiotech” for “(Rabbit anti-mouse immunoglobulin antibodies from Biacore Mouse Antibody Capture Kit, GE Lifesciences”, “#2081-01)” for “# BR-1008-38)”, “[…]” for “60”, “4.5” for “5.0”
(§2) Antibodies were captured from undiluted supernatants onto downstream flow cells (flow cells 2, 3 and 4) at a flow rate of 10 μL/min for 2 minutes. Different antibodies were captured on each flow cell. Flow cell 1 was used as a reference surface. Following capture of antibodies, analyte (buffer, hGITR, or cyGITR) was injected at 30 μL/min on all flow cells for two minutes. After the analyte injection, dissociation was monitored for 10 minutes followed by regeneration of all flow cells with three 1-minute injections of 75 mM Phosphoric Acid. For each captured antibody, the following analyte injections were performed: buffer, 20 nM hGITR, 200 nM hGITR, 20 nM cyGITR and 200 nM cyGITR. Buffer cycles were collected for each captured antibody for double-referencing purposes (double-referencing as described in Myszka, J. Mol. Recognit. 12:279-284 (1999). The double-referenced sensorgrams were fit globally to a simple 1:1 Langmuir with mass transport binding model.

[5] = target: T4, cynomolgus GITR (cyGITR), soluble analyte (cynomolgus); test: as above
T4 construct: Soluble analyte in SPR; construct not described; also called cGITR
Procedure: as §1, with “anti-human” for “anti-mouse”, “anti-human Fc” for “anti-mouse immunoglobulin”, “(Goat Anti-Human IgG Fc, SouthernBiotech” for “(Rabbit anti-mouse immunoglobulin antibodies from Biacore Mouse Antibody Capture Kit, GE Lifesciences”, “#2081-01)” for “# BR-1008-38)”, “[…]” for “60”, “4.5” for “5.0”
as §2

Binder | Kd [1] [nM] | koff [1] [s⁻¹] | kon [1] [M⁻¹ s⁻¹] | t1/2 [1] [min] | EC50 of macrophage-mediated cytotoxicity (ADCP) of a GITR+ T cell line (human GITR on cells [2]) [nM] | EC50 (read off the curve) (human GITR on cells [3]) [µg/mL] | Kd [4] [nM] | koff [4] [s⁻¹] | t1/2 [4] [min] | Kd [5] [nM] | kon [4] [M⁻¹ s⁻¹] | koff [5] [s⁻¹] | t1/2 [5] [min] | kon [5] [M⁻¹ s⁻¹]
B1 | 2.2 | 0.00049 | 220000 | 24 | – | – | – | – | – | – | – | – | – | –
B2 | – | – | – | – | 2.01 | ~0.03 | – | – | – | – | – | – | – | –
B3 | – | – | – | – | – | – | > 100 | 0.0563 | 0.21 | > 100 | – | – | – | –
B4 | – | – | – | – | – | – | 6.6 | 0.00154 | 7.5 | > 100 | 233000 | 0.011 | 1.1 | –
B5 | 21 | 0.0065 | 310000 | 1.8 | – | – | – | – | – | – | – | – | – | –
B6 | – | – | – | – | 0.92 | – | 5 | 0.0045 | 2.6 | 6.4 | 900000 | 0.0038 | 3 | 600000
B7 | – | – | – | – | – | – | 17 | 0.019 | 0.61 | 13 | 1.1e+06 | 0.0088 | 1.3 | 670000
B8 | – | – | – | – | – | – | 22 | 0.015 | 0.76 | 69 | 690000 | 0.023 | 0.51 | 330000
B9 | – | – | – | – | 0.692 | – | – | – | – | – | – | – | – | –
